# Experimental data: patent US20230357348A1 (AstraZeneca / MedImmune, published 2023)
# Starred links: 1 amine or outer side, 2 acyl side, 3 side chain; linkers in the order of their positions; H or OH if unused. Non-standard residues stand in square brackets, D forms with d. Groups on a side chain read outwards from the residue. Primed or numbered codes have the meaning given here. No end group written: not given here. *: point of attachment. (PEG)2″ = polyethylene glycol 2 linker unit; C18 diacid = O=C(O)CCCCCCCCCCCCCCCCC(=O)*; Dip = N[C@H](C(=O)O)C(c1ccccc1)c1ccccc1; Heptadecanoyl = CCCCCCCCCCCCCCCCC(=O)*; γGlu = O=C(O)[C@H](CCC(=O)[*:2])N[*:1]; Stearoyl = CCCCCCCCCCCCCCCCCC(=O)*; Palmitoyl = CCCCCCCCCCCCCCCC(=O)*; αMeF = C[C@](N)(Cc1ccccc1)C(=O)O; Myristoyl = CCCCCCCCCCCCCC(=O)*; (PEG)2 = polyethylene glycol 2; PEG2′ = polyethylene glycol 2; PEG4 = NCCOCCOCCOCCOCCC(=O)O; Dodecyl = CCCCCCCCCCCC*; AEEA = NCCOCCOCC(=O)O; Aib = CC(C)(N)C(=O)O
# What was measured:
# [1] = molecular target: human glucagon receptor (hGCGR) (human, UniProt P47871 26-477); assay: cell-based or functional assay
# Sequence of human glucagon receptor (hGCGR) (P47871 26-477): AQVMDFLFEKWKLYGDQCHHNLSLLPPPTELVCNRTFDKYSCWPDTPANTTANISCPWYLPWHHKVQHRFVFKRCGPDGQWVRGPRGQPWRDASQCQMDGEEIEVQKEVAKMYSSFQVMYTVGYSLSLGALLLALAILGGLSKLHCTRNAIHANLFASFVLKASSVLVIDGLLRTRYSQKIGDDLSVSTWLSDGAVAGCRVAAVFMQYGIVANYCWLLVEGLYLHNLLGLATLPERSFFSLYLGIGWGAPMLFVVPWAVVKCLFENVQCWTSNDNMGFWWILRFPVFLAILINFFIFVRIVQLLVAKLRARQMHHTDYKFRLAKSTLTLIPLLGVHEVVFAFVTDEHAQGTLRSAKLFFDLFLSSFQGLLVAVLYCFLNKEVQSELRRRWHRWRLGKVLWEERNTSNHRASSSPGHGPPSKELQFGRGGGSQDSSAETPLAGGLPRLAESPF
# [2] = molecular target: human GLP-1 receptor (hGLP-1R) (human, UniProt P43220 24-463); assay: cell-based or functional assay
Binder,hGluc-R EC50 (pM) [1] [pM],hGLP-1R EC50 (pM) [2] [pM]
HSQGS[αMeF]TSDVSK[Dip]LDSKAAQD[αMeF]VE[Aib]IINT-NH2 (not fully specified (residue 17)) [Peptide 65],2060,1230
HSQGS[αMeF]TSDVSK[Dip]LDSK([(PEG)2-(PEG)2-γGlu-γGlu-Dodecyl])AAQD[αMeF]VE[Aib]IINT-NH2 [Peptide 62],15.2,10.1
H[Aib]QGS[αMeF]TSDVSK[Dip]LDSK([(PEG)2-(PEG)2-γGlu-Palmitoyl])AAQD[αMeF]VQ[Aib]IAN-NH2 [Peptide 67],9.49,2.43
HSQGS[αMeF]TSDVSK[αMeF]LDSK([(PEG)2-(PEG)2-γGlu-γGlu-Palmitoyl])AAQD[αMeF]VQ[Aib]LEAGG-NH2 [Peptide 79],10.7,1.73
H[Aib]QGS[αMeF]TSDVSK[αMeF]LDSK([PEG4-γGlu-γGlu-Palmitoyl])AAQD[αMeF]VE[Aib]LEAGG-NH2 (N-terminus assumed; SMILES CCCCCCCCCCCCCCCC(=O)N[C@@H](CCC(=O)N[C@@H](CCC(=O)NCCOCCOCCOCCOCCC(=O)NCCCC[C@H](NC(=O)[C@H](CO)NC(=O)[C@H](CC(=O)O)NC(=O)[C@H](CC(C)C)NC(=O)[C@](C)(Cc1ccccc1)NC(=O)[C@H](CCCCN)NC(=O)[C@H](CO)NC(=O)[C@@H](NC(=O)[C@H](CC(=O)O)NC(=O)[C@H](CO)NC(=O)[C@@H](NC(=O)[C@](C)(Cc1ccccc1)NC(=O)[C@H](CO)NC(=O)CNC(=O)[C@H](CCC(N)=O)NC(=O)C(C)(C)NC(=O)[C@@H](N)Cc1c[nH]cn1)[C@@H](C)O)C(C)C)C(=O)N[C@@H](C)C(=O)N[C@@H](C)C(=O)N[C@@H](CCC(N)=O)C(=O)N[C@@H](CC(=O)O)C(=O)N[C@@](C)(Cc1ccccc1)C(=O)N[C@H](C(=O)N[C@@H](CCC(=O)O)C(=O)NC(C)(C)C(=O)N[C@@H](CC(C)C)C(=O)N[C@@H](CCC(=O)O)C(=O)N[C@@H](C)C(=O)NCC(=O)NCC(N)=O)C(C)C)C(=O)O)C(=O)O) [Peptide 72],73.7,3.42
H[Aib]HGS[αMeF]TSDVSK[αMeF]LDSK([AEEA-AEEA-γGlu-C18 diacid])AARDFVQ[Aib]IANT-NH2 (N-terminus assumed; SMILES CC[C@H](C)[C@H](NC(=O)C(C)(C)NC(=O)[C@H](CCC(N)=O)NC(=O)[C@@H](NC(=O)[C@H](Cc1ccccc1)NC(=O)[C@H](CC(=O)O)NC(=O)[C@H](CCCNC(=N)N)NC(=O)[C@H](C)NC(=O)[C@H](C)NC(=O)[C@H](CCCCNC(=O)COCCOCCNC(=O)COCCOCCNC(=O)CC[C@H](NC(=O)CCCCCCCCCCCCCCCCC(=O)O)C(=O)O)NC(=O)[C@H](CO)NC(=O)[C@H](CC(=O)O)NC(=O)[C@H](CC(C)C)NC(=O)[C@](C)(Cc1ccccc1)NC(=O)[C@H](CCCCN)NC(=O)[C@H](CO)NC(=O)[C@@H](NC(=O)[C@H](CC(=O)O)NC(=O)[C@H](CO)NC(=O)[C@@H](NC(=O)[C@](C)(Cc1ccccc1)NC(=O)[C@H](CO)NC(=O)CNC(=O)[C@H](Cc1c[nH]cn1)NC(=O)C(C)(C)NC(=O)[C@@H](N)Cc1c[nH]cn1)[C@@H](C)O)C(C)C)C(C)C)C(=O)N[C@@H](C)C(=O)N[C@@H](CC(N)=O)C(=O)N[C@H](C(N)=O)[C@@H](C)O) [Peptide 12],47.7,14.5
H[Aib]HGS[αMeF]TSDVSK[αMeF]LDSK([AEEA-AEEA-γGlu-C18 diacid])AAQDFVQ[Aib]IANT-NH2 [Peptide 11],118,157
HSQGS[αMeF]TSDVSK[Dip]LDSK([(PEG)2-γGlu-(PEG)2-γGlu-Stearoyl])AAQD[αMeF]VE[Aib]IINT-NH2 [Peptide 61],9.55,4.12
HSQGS[αMeF]TSDVSK[Dip]LDSK([(PEG)2-(PEG)2-γGlu-γGlu-Myristyl])AAQD[αMeF]VE[Aib]IINT-NH2 [Peptide 63],2.49,3.14
H[Aib]HGS[αMeF]TSDVSK[αMeF]LDSK([AEEA-AEEA-γGlu-C18 diacid])AARD[αMeF]VQ[Aib]IANT-NH2 (N-terminus assumed; SMILES CC[C@H](C)[C@H](NC(=O)C(C)(C)NC(=O)[C@H](CCC(N)=O)NC(=O)[C@@H](NC(=O)[C@](C)(Cc1ccccc1)NC(=O)[C@H](CC(=O)O)NC(=O)[C@H](CCCNC(=N)N)NC(=O)[C@H](C)NC(=O)[C@H](C)NC(=O)[C@H](CCCCNC(=O)COCCOCCNC(=O)COCCOCCNC(=O)CC[C@H](NC(=O)CCCCCCCCCCCCCCCCC(=O)O)C(=O)O)NC(=O)[C@H](CO)NC(=O)[C@H](CC(=O)O)NC(=O)[C@H](CC(C)C)NC(=O)[C@](C)(Cc1ccccc1)NC(=O)[C@H](CCCCN)NC(=O)[C@H](CO)NC(=O)[C@@H](NC(=O)[C@H](CC(=O)O)NC(=O)[C@H](CO)NC(=O)[C@@H](NC(=O)[C@](C)(Cc1ccccc1)NC(=O)[C@H](CO)NC(=O)CNC(=O)[C@H](Cc1c[nH]cn1)NC(=O)C(C)(C)NC(=O)[C@@H](N)Cc1c[nH]cn1)[C@@H](C)O)C(C)C)C(C)C)C(=O)N[C@@H](C)C(=O)N[C@@H](CC(N)=O)C(=O)N[C@H](C(N)=O)[C@@H](C)O) [Peptide 13],44,15.9
HSQGS[αMeF]TSDVSK[Dip]LDSK([(PEG)2-(PEG)2-γGlu-γGlu-Palmitoyl])AAQD[αMeF]VE[Aib]IINT-NH2 [Peptide 64],3.06,2.57

# The remaining lines, values ahead:
hGluc-R EC50 (pM) [1] [pM],hGLP-1R EC50 (pM) [2] [pM],Binder
40.5,0.258,HSQGS[αMeF]TSDVSK[Aib]LDSK([(PEG)2″-(PEG)2″-γGlu-γGlu-Stearyl])AAQD[αMeF]VQ[Aib]IAN-NH2 [Peptide 100]
0.857,1.42,HSQGS[αMeF]TSDVSKILDSK([PEG2′-PEG2′-γGlu-Myristoyl])AAQD[αMeF]VQ[Aib]IINT-NH2 [Peptide 122]
2.09,1.92,HSQGS[αMeF]TSDVSKILDSKAAQD[αMeF]VQ[Aib]IAN-NH2 (not fully specified (residue 17)) [Peptide 111]
48.5,0.627,HSQGS[αMeF]TSDVSK(Ac)[Aib]LDSK([PEG2′-PEG2′-γGlu-γGlu-Stearyl])AAQD[αMeF]VQ[Aib]IAN-NH2 [Peptide 110]
9.18,1.03,HSQGS[αMeF]TSDVSK[αMeF]LDSKAAQD[αMeF]VQ[Aib]LEAGG-NH2 (not fully specified (residue 17)) [Peptide 80]
6.47,1.04,HSQGS[αMeF]TSDVSK[αMeF]LDSK([(PEG)2-(PEG)2-γGlu-γGlu-Heptadecanoyl])AAQD[αMeF]VQ[Aib]IAN-NH2 [Peptide 88]
2.62,1.81,HSQGS[αMeF]TSDVSKILDSK([PEG2′-PEG2′-γGlu-Stearoyl])AAQD[αMeF]VQ[Aib]IINT-NH2 [Peptide 120]
1.7,1.39,HSQGS[αMeF]TSDVSKILDSK([PEG2′-PEG2′-γGlu-γGlu-Myristoyl])AAQD[αMeF]VQ[Aib]IINT-NH2 [Peptide 119]
> 26800,698,HSQGS[αMeF]TSDVSK(Ac)[Aib]LDSK([AEEA-AEEA-γGlu-C18 diacid])AAQD[αMeF]VQ[Aib]IAN-NH2 (N-terminus assumed; SMILES CC[C@H](C)[C@H](NC(=O)C(C)(C)NC(=O)[C@H](CCC(N)=O)NC(=O)[C@@H](NC(=O)[C@](C)(Cc1ccccc1)NC(=O)[C@H](CC(=O)O)NC(=O)[C@H](CCC(N)=O)NC(=O)[C@H](C)NC(=O)[C@H](C)NC(=O)[C@H](CCCCNC(=O)COCCOCCNC(=O)COCCOCCNC(=O)CC[C@H](NC(=O)CCCCCCCCCCCCCCCCC(=O)O)C(=O)O)NC(=O)[C@H](CO)NC(=O)[C@H](CC(=O)O)NC(=O)[C@H](CC(C)C)NC(=O)C(C)(C)NC(=O)[C@H](CCCCNC(C)=O)NC(=O)[C@H](CO)NC(=O)[C@@H](NC(=O)[C@H](CC(=O)O)NC(=O)[C@H](CO)NC(=O)[C@@H](NC(=O)[C@](C)(Cc1ccccc1)NC(=O)[C@H](CO)NC(=O)CNC(=O)[C@H](CCC(N)=O)NC(=O)[C@H](CO)NC(=O)[C@@H](N)Cc1c[nH]cn1)[C@@H](C)O)C(C)C)C(C)C)C(=O)N[C@@H](C)C(=O)N[C@@H](CC(N)=O)C(N)=O) [Peptide 109]
1.2,1.07,HSQGS[αMeF]TSDVSKILDSK([PEG2′-PEG2′-γGlu-γGlu-Palmitoyl])AAQD[αMeF]VQ[Aib]IINT-NH2 [Peptide 118]
1.2,1.5,HSQGS[αMeF]TSDVSKILDSK([PEG2′-PEG2′-γGlu-Palmitoyl])AAQD[αMeF]VQ[Aib]IINT-NH2 [Peptide 121]
8.46,1.29,HSQGS[αMeF]TSDVSK[αMeF]LDSK([(PEG)2-(PEG)2-γGlu-γGlu-Palmitoyl])AAQD[αMeF]VQ[Aib]IAN-NH2 [Peptide 87]
